# Data as given in the supplement of paper PMC12855868.
# B1: library; numbered along this chain (parent)
# chain: MAAAGGARLLRAASAVLGGPAGRWLHHAGSRAGSSGLLRNRGPGGSAEASRSLSVSARARSSSEDKITVHFINRDGETLTTKGKVGDSLLDVVVENNLDIDGFGACEGTLACSTCHLIFEDHIYEKLDAITDEENDMLDLAYGLTDRSRLGCQICLTKSMDNMTVRVPETVADARQSIDVGKTS
# Variants of: B1
# Test: scaled log2 fold change in cell abundance, elesclomol vs control (0 = silent mean, 1 = nonsense mean) (scaled log2 ratio); higher = higher viability under elesclomol (loss of FDX1 cuproptosis function)
# Details: glucose 10 mM
# [1] = with ABC1 FDX1 KO, elesclomol 5 nM, 14 days
# [2] = with HEK293T FDX1 KO, elesclomol 40 nM, 11 days
# 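Note: variant abundance is its share of total variant reads in each endpoint sample, from next-generation sequencing of the integrated ORF PCR-amplified out of genomic DNA.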
Variant,scaled log2 fold change [1],scaled log2 fold change [2]
R147Q,0.0113,-0.0201
R147Y,0.159,0.243
R147F,0.104,-0.384
A141Y,-0.374,-0.341
S148P,0.532,0.268
S148R,0.331,0.333
S148H,0.322,-0.35
S148T,0.485,0.124
S148L,0.386,0.434
S148K,0.496,-0.0219
S148I,0.277,1.81
S148M,0.0932,0.216
S148C,0.0537,0.319
S148Y,0.363,-0.279
S148D,0.488,0.491
S148A,-0.395,0.0871
S148G,-0.0749,-0.519
S148W,0.632,0.172
S148F,0.404,0.537
S148E,0.489,1.23
S148V,0.0179,0.35
S148N,0.122,0.397
S148Q,0.313,0.39
T145D,-0.00306,-0.25

Variant,scaled log2 fold change [1],scaled log2 fold change [2]
T145N,0.291,-0.855
T145C,-0.124,-0.351
T145V,0.027,-0.443
T145F,-0.258,-0.0341
T145Q,0.226,-1.28
T145G,0.132,1.06
T145A,-0.6,0.187
T145I,0.244,-0.228
T145H,-0.157,-0.272
T145E,-0.0343,-0.344
T145W,0.478,-0.147
T145R,0.0604,-0.726
T145Y,0.224,0.0425
T145L,0.169,0.152
T145M,0.318,-0.375
T145S,0.00135,
T145K,-0.0518,-0.472
T145P,0.209,-0.123
G143Y,0.0128,0.695
G143K,-1.13,0.329
G143T,0.153,-1.08
G143S,-0.338,0.106
G143V,0.0102,-0.395
G143L,-0.0816,0.114

Variant,scaled log2 fold change [1],scaled log2 fold change [2]
G143H,-0.162,-0.302
G143I,-0.102,-0.507
G143W,-0.202,-0.602
G143M,0.337,-0.813
G143N,-0.705,0.0112
G143E,-0.312,-0.391
G143Q,-0.167,0.225
G143R,0.384,-1.11
G143F,-0.335,0.343
G143C,-0.043,0.0676
G143A,0.189,1
G143P,0.108,-0.153
G143D,0.242,0.59
L144A,0.157,-0.304
L144I,0.399,-0.124
L144D,0.171,-0.877
L144M,0.249,-0.887
L144C,0.106,-0.265
L144Y,-1.21,-0.239
L144G,-0.079,-0.323
L144R,0.343,0.505
L144V,-0.402,-0.057
L144W,-0.112,-0.217
L144F,-0.293,1.23

Variant,scaled log2 fold change [1],scaled log2 fold change [2]
L144N,0.342,-0.655
L144E,0.116,0.0837
L144S,-0.409,0.564
L144T,0.135,-0.511
L144Q,0.137,-1.45
L144P,0.386,0.307
L144K,0.175,-0.503
L144H,-0.0895,-0.335
Y142L,-0.24,-0.251
Y142Q,-0.102,-0.021
Y142P,-1.37,
Y142M,-0.877,-0.0122
Y142C,0.285,-0.427
Y142V,-0.226,-0.606
Y142S,-0.293,-1.45
Y142T,-0.197,0.583
Y142I,-0.441,
Y142G,-0.302,-0.393
Y142W,-0.245,0.733
Y142K,0.0326,
Y142F,0.0438,0.876
Y142H,-0.0863,0.947
Y142R,0.172,-1.11
Y142N,-0.329,

Variant,scaled log2 fold change [1],scaled log2 fold change [2]
Y142A,-0.39,
Y142D,-0.228,1.12
Y142E,-0.1,-0.695
G151P,1.03,1.12
G151D,1.22,1.19
G151R,1.11,0.946
G151T,0.645,0.96
G151W,1.06,1.38
G151Q,1.11,1.05
G151S,0.0704,-0.359
G151Y,1.15,1.08
G151L,1,0.743
G151V,0.707,-0.147
G151E,1.06,1.01
G151A,0.241,0.25
G151F,1.04,1.32
G151H,1.27,1.31
G151K,1.04,0.728
G151I,1.07,0.797
G151M,1.01,1.15
G151N,1.12,1.08
G151C,0.338,-0.416
